Target: T1, MBP (UniProt P0AEX9 27-392 = MBP)
T1 construct: Control without pilin
Assay: co-precipitation of CD147-Fc with MBP immobilised on staphylococci, immunoblot

B1: recombinant human CD147-Fc chimera (Fc fusion)
chain: THGASGAAGTVFTTVEDLGSKILLTCSLNDSATEVTGHRWLKGGVVLKEDALPGQKTEFKVDSDDQWGEYSCVFLPEPMGTANIQLHGPPRVKAVKSSEHINEGETAMLVCKSESVPPVTDWAWYKITDSEDKALMNGSESRFFVSSSQGRSELHIENLNMEADPGQYRCNGTSSKGSDQAIITLRVRSH
notes: Bought from R&D Systems; comprises the Ig domains of CD147 fused to the Fc domain of human IgG1, produced as a disulfide-linked homodimer; also called soluble chimeric CD147-Fc; recombinant soluble form of the extracellular domain of CD147; not shown: Fc domain of human IgG1
binding result: no binding (tested: 1 µg of recombinant human CD147-Fc)

Reference: patent US20150110806A1 (INSTITUT NATIONAL DE LA SANTE ET DE LA RECHERCHE MEDICALE, published 2015)
